In patent US20180291082A1 (IMMATICS BIOTECHNOLOGIES, published 2018):

Assays:
Test in all cases: UV-ligand exchange, anti-b2m ELISA; exchange yield grade (+ >10%, ++ >20%, +++ >50, ++++ >75%)
[1] = biological target: T1, HLA-A*24:02 (human)
T1 construct: Peptide-receptive MHC monomer made by UV cleavage of a UV-sensitive peptide
Method in brief: (§1)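 Absorbance at 450 nm after HRP anti-β2m detection gives the yield of UV-mediated ligand exchange, quantified against HLA-A*02:01/MLA-001 monomer standards. Only peptides that bind and stabilise peptide-receptive MHC keep the complex intact after UV cleavage of the conditional ligand.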

[2] = biological target: T2, HLA-B*07:02 (human)
T2 construct: Peptide-receptive MHC monomer made by UV cleavage of a UV-sensitive peptide
Method in brief: as §1

[3] = biological target: T3, HLA-A*02:01 (human)
T3 construct: Peptide-receptive MHC monomer made by UV cleavage of a UV-sensitive peptide
Method in brief: as §1

peptide exchange yield [1] | peptide exchange yield [2] | Binder | other results
20 to 50% | – | YFEEAANFL | –
– | 20 to 50% | RPASSLRP | –
– | 50 to 75% | VPSLQRLML | –
20 to 50% | – | VFLNQIYTQL | –
10 to 20% | – | SFDSNLLSF | –
– | 20 to 50% | YPSEVEHMF | –
10 to 20% | – | RQYLAINQI | –
50 to 75% | – | SYTKVEARL | –
50 to 75% | – | SYIEKVRFL | –
– | 20 to 50% | SPLRGGSSL | –
– | 50 to 75% | TPIAKVSEL | –
– | 50 to 75% | SPMWHVQQL | –
> 75% | – | PYASLASELF | –
50 to 75% | – | TYISKTIAL | –
– | 20 to 50% | RPAVGHSGL | –
20 to 50% | – | TYLTGRQF | –
50 to 75% | – | VYGDGHYLTF | –
50 to 75% | – | TFQDKTLNF | –
50 to 75% | – | VIAPIISNF | –
50 to 75% | – | VWAKILSAF | –

More lines, now with the values behind:

Binder | peptide exchange yield [1] | peptide exchange yield [2] | other results
APSGTRVVQVL | – | 20 to 50% | –
VLITGLPLI | – | – | peptide exchange yield [3]: > 75%
FPTEVTPHAF | – | 20 to 50% | –
GLMTIVTSL | – | – | peptide exchange yield [3]: > 75%
HDPDVGSNSL | – | 20 to 50% | –
KIDDIWNLEV | – | – | peptide exchange yield [3]: 50 to 75%
IPTDKLLVI | – | 20 to 50% | –
KYLSLSNSF | > 75% | – | –
LVLDYSKDYNHW | 10 to 20% | – | –
MVPSAGQLALF | – | 20 to 50% | –
SLQDTKITL | – | – | peptide exchange yield [3]: 50 to 75%
HPIETLVDIF | – | 20 to 50% | –
MYAKEFDLL | 50 to 75% | – | –
KLYGMPTDFGF | 20 to 50% | – | –
APKLFAVAF | – | 50 to 75% | –
EYNNIQHLF | 50 to 75% | – | –
KLLDEVTYL | – | – | peptide exchange yield [3]: 50 to 75%

Binder | peptide exchange yield [1] | peptide exchange yield [2] | other results
VMLNSNVLL | – | – | peptide exchange yield [3]: > 75%
KMMALVAEL | – | – | peptide exchange yield [3]: > 75%
LPDGSRVEL | – | 20 to 50% | –
KFLDSNIKF | 50 to 75% | – | –
YLLPSVVLL | – | – | peptide exchange yield [3]: > 75%
IFINLSPEF | > 75% | – | –
YQDSWFQQL | – | – | peptide exchange yield [3]: 50 to 75%
LPALPQQLI | – | 50 to 75% | –
NFLPPIIARF | > 75% | – | –
IYGPKYIHPSF | > 75% | – | –
ISTPSEVSTPL | – | 20 to 50% | –
KYLSIPTVF | > 75% | – | –
KYLSIPAVF | > 75% | – | –
SQTGFVVLV | – | – | peptide exchange yield [3]: 20 to 50%
KPAHYPLIAL | – | 50 to 75% | –
MPMISIPRV | – | 20 to 50% | –
KYLSIPAVFF | > 75% | – | –
